{"source": "paper PMC11143692", "biological_target": "Flag-eIF4E tagged with homotetrameric tag 6 (HOTag6), the eIF4E part of TORSEL (UniProt P06730)", "sequence (P06730 whole entry)": "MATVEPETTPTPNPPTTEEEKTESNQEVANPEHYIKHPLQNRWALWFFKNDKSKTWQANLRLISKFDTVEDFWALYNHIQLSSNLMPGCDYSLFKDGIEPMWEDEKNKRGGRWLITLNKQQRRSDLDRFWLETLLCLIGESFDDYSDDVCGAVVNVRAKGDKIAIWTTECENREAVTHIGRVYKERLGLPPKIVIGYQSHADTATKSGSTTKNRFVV", "data": [{"substance": "HA-tagged 4EBP1 tagged with mCherry and homohexameric tag 3 (HOTag3), the 4EBP1 part of TORSEL (from UniProt Q13541 1-118) (natural protein)", "values": [{"measurement": "TORSEL fluorescent puncta in living U2OS cells when mTORC1 is suppressed by serum deprivation, EAA starvation or rapamycin; diffuse under normal culture conditions; 50-90% of cells with visible puncta", "result": "50 to 90 % of cells"}]}]}
